# Measurements as given in US20200199217A1 (published 2020).
# T1: hu-IL-36β (human)
# T1 chain: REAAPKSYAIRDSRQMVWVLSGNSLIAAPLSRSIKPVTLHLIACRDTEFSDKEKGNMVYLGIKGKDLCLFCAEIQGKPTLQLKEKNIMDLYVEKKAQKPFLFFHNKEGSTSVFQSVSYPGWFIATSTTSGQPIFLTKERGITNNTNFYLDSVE
# T2: hu-IL-36α (human, UniProt Q9UHA7 6-158)
# T2 sequence: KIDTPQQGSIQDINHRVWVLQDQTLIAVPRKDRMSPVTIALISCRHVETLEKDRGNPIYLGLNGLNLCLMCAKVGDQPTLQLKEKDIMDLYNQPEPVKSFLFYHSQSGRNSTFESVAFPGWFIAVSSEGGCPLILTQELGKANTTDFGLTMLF
# T3: hu-IL-36γ (human, UniProt Q9NZH8 18-169)
# T3 sequence: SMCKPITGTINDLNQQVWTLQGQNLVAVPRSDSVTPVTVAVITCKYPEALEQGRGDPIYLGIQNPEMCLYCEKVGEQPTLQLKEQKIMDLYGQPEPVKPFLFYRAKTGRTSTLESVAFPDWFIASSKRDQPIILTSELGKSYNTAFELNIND
# Assays:
# Assay in all cases: cell-based or functional assay
# hu-IL-36β [1] = molecular target: T1, hu-IL-36β
# hu-IL-36β [2] = molecular target: T1, hu-IL-36β
# hu-IL-36α [3] = molecular target: T2, hu-IL-36α
# hu-IL-36γ [4] = molecular target: T3, hu-IL-36γ
# hu-IL-36α [5] = molecular target: T2, hu-IL-36α; remark: listed apart in the source
# hu-IL-36γ [6] = molecular target: T3, hu-IL-36γ; remark: listed apart in the source
# hu-IL-36α [7] = molecular target: T2, hu-IL-36α; remark: listed apart in the source
# hu-IL-36β [8] = molecular target: T1, hu-IL-36β
# hu-IL-36γ [9] = molecular target: T3, hu-IL-36γ; remark: listed apart in the source
binder,measurement,setting,value
"mAb8.0 Fab (Fab, V domains shown) VH: QVQLVQSGAEVKKPGSSVKVSCKASGGTFSNYAISWVRQAPGQGLEWMGGILPILGTVDYAQKFQGRVTITADESTSTAYMELSSLRSEDTAVYYCAREPWYRLGAFDVWGQGTLVTVSS VL: DIQMTQSPSSLSASVGDRVTITCRASQTIYKYLNWYQQKPGKAPKLLIYAASSLQSGVPSRFSGSGSGTDFTLTISSLQPEDFATYYCQQYSSIPYTFGQGTKVEIK","% Inhibition, HEK Blue SEAP reporter assay",hu-IL-36β [1],85%
"mAb8.0 IgG (antibody, V domains shown) VH: QVQLVQSGAEVKKPGSSVKVSCKASGGTFSNYAISWVRQAPGQGLEWMGGILPILGTVDYAQKFQGRVTITADESTSTAYMELSSLRSEDTAVYYCAREPWYRLGAFDVWGQGTLVTVSS VL: DIQMTQSPSSLSASVGDRVTITCRASQTIYKYLNWYQQKPGKAPKLLIYAASSLQSGVPSRFSGSGSGTDFTLTISSLQPEDFATYYCQQYSSIPYTFGQGTKVEIK","IC50, HEK Blue SEAP reporter assay",hu-IL-36β [2],0.34 nM
"mAb1.0 Fab (Fab, V domains shown) VH: QVQLVESGGGVVQPGRSLRLSCAASGFSFSAYAMHWVRQAPGKGLEWVAVISYDGTNEYYADSVKGRFTISRDNSKNTLYLQMNSLRAEDTAVYYCARGIRIFTSYFDSWGQGTLVTVSS VL: QSVLTQPPSVSGAPGQRVTISCTGSSSNIGAHYDVHWYQQLPGTAPKLLIYSNNNRPSGVPDRFSGSKSGTSASLAITGLQAEDEADYYCQSYDYSLRGYVFGGGTKLTVL","% Inhibition, HEK Blue SEAP reporter assay",hu-IL-36α [3],70%
same,"% Inhibition, HEK Blue SEAP reporter assay",hu-IL-36γ [4],31%
"mAb4.0 Fab (Fab, V domains shown) VH: QLQLQESGPGLVKPSETLSLTCTVSGGSIGSRSYYWGWIRQPPGKGLEWIGSIHYSGTTYYNPSLKSRVTISVDTSKNQFSLKLSSVTAADTAVYYCARVAPSYPRVFDYWGQGTLVTVSS VL: QSVLTQPPSVSGAPGQRVTISCTGSSSNIGAGYDVHWYQQLPGTAPKLLIYGNRNRPSGVPDRFSGSKSGTSASLAITGLQAEDEADYYCQSYDYSLRVYVFGGGTKLTVL","% Inhibition, HEK Blue SEAP reporter assay",hu-IL-36α [3],91%
same,"% Inhibition, HEK Blue SEAP reporter assay",hu-IL-36γ [4],57%
"mAb5.0 IgG (antibody, V domains shown) VH: EVQLLESGGGLVQPGGSLRLSCAASGFTFSTYAMSWVRQAPGKGLEWVSGISGGSGYTYYADSVKGRFTISRDNSKNTLYLQMNSLRAEDTAVYYCARVVTYRDPPASFDYWGQGTLVTVSS VL: QSVLTQPPSVSGAPGQRVTISCTGSSSNIGAHYDVHWYQQLPGTAPKLLIYGNDNRPSGVPDRFSGSKSGTSASLAITGLQAEDEADYYCQSYDYSLKAYVFGGGTKLTVL","IC50, HEK Blue SEAP reporter assay",hu-IL-36α [5],95 nM
same,"IC50, HEK Blue SEAP reporter assay",hu-IL-36γ [6],142 nM
"mAb1.0 IgG (antibody, V domains shown) VH: QVQLVESGGGVVQPGRSLRLSCAASGFSFSAYAMHWVRQAPGKGLEWVAVISYDGTNEYYADSVKGRFTISRDNSKNTLYLQMNSLRAEDTAVYYCARGIRIFTSYFDSWGQGTLVTVSS VL: QSVLTQPPSVSGAPGQRVTISCTGSSSNIGAHYDVHWYQQLPGTAPKLLIYSNNNRPSGVPDRFSGSKSGTSASLAITGLQAEDEADYYCQSYDYSLRGYVFGGGTKLTVL","IC50, HEK Blue SEAP reporter assay",hu-IL-36α [5],43 nM
same,"IC50, HEK Blue SEAP reporter assay",hu-IL-36γ [6],5.3 nM
"mAb4.0 IgG (antibody, V domains shown) VH: QLQLQESGPGLVKPSETLSLTCTVSGGSIGSRSYYWGWIRQPPGKGLEWIGSIHYSGTTYYNPSLKSRVTISVDTSKNQFSLKLSSVTAADTAVYYCARVAPSYPRVFDYWGQGTLVTVSS VL: QSVLTQPPSVSGAPGQRVTISCTGSSSNIGAGYDVHWYQQLPGTAPKLLIYGNRNRPSGVPDRFSGSKSGTSASLAITGLQAEDEADYYCQSYDYSLRVYVFGGGTKLTVL","IC50, HEK Blue SEAP reporter assay",hu-IL-36α [5],16 nM
same,"IC50, HEK Blue SEAP reporter assay",hu-IL-36γ [6],52 nM
"mAb3.0 IgG (antibody, V domains shown) VH: QLQLQESGPGLVKPSETLSLTCTVSGGSISSTSYYWGWIRQPPGKGLEWIGSIHYSGNTYYNPSLKSRVTISVDTSKNQFSLKLSSVTAADTAVYYCARVHYGGYIPRRFDHWGQGTLVTVSS VL: QSVLTQPPSVSGAPGQRVTISCTGSSSNIGAGYDVHWYQQLPGTAPKLLIYGNTNRPSGVPDRFSGSKSGTSASLAITGLQAEDEADYYCQSYDYSLRGYVFGGGTKLTVL","IC50, HEK Blue SEAP reporter assay",hu-IL-36α [5],90 nM
same,"IC50, HEK Blue SEAP reporter assay",hu-IL-36γ [6],30 nM
"mAb3.0 Fab (Fab, V domains shown) VH: QLQLQESGPGLVKPSETLSLTCTVSGGSISSTSYYWGWIRQPPGKGLEWIGSIHYSGNTYYNPSLKSRVTISVDTSKNQFSLKLSSVTAADTAVYYCARVHYGGYIPRRFDHWGQGTLVTVSS VL: QSVLTQPPSVSGAPGQRVTISCTGSSSNIGAGYDVHWYQQLPGTAPKLLIYGNTNRPSGVPDRFSGSKSGTSASLAITGLQAEDEADYYCQSYDYSLRGYVFGGGTKLTVL","% Inhibition, HEK Blue SEAP reporter assay",hu-IL-36α [3],40%
same,"% Inhibition, HEK Blue SEAP reporter assay",hu-IL-36γ [4],64%
"mAb5.0 Fab (Fab, V domains shown) VH: EVQLLESGGGLVQPGGSLRLSCAASGFTFSTYAMSWVRQAPGKGLEWVSGISGGSGYTYYADSVKGRFTISRDNSKNTLYLQMNSLRAEDTAVYYCARVVTYRDPPASFDYWGQGTLVTVSS VL: QSVLTQPPSVSGAPGQRVTISCTGSSSNIGAHYDVHWYQQLPGTAPKLLIYGNDNRPSGVPDRFSGSKSGTSASLAITGLQAEDEADYYCQSYDYSLKAYVFGGGTKLTVL","% Inhibition, HEK Blue SEAP reporter assay",hu-IL-36α [3],75%
same,"% Inhibition, HEK Blue SEAP reporter assay",hu-IL-36γ [4],75%
"mAb2.0 Fab (Fab, V domains shown) VH: QLQLQESGPGLVKPSETLSLTCTVSGGSISTSSYYWGWIRQPPGKGLEWIGSIYYTGNTYYNPSLKSRVTISVDTSKNQFSLKLSSVTAADTAVYYCARVRYGVGVPRYFDPWGQGTLVTVSS VL: QSVLTQPPSVSGAPGQRVTISCTGSSSNIGAHYDVHWYQQLPGTAPKLLIYGNDNRPSGVPDRFSGSKSGTSASLAITGLQAEDEADYYCQSYDYSLSGYVFGGGTKLTVL","% Inhibition, HEK Blue SEAP reporter assay",hu-IL-36α [3],91%
same,"% Inhibition, HEK Blue SEAP reporter assay",hu-IL-36γ [4],89%
"mAb6.0 Fab (Fab, V domains shown) VH: QLQLQESGPGLVKPSETLSLTCTVSGGSITSSNYYWGWIRQPPGKGLEWIGSIDYTGSTYYNPSLKSRVTISVDTSKNQFSLKLSSVTAADTAVYYCARGKYYETYLGFDVWGQGTLVTVSS VL: QSVLTQPPSVSGAPGQRVTISCTGSSSNIGAGYDVHWYQQLPGTAPKLLIYGNTNRPSGVPDRFSGSKSGTSASLAITGLQAEDEADYYCQSYDISLSGWVFGGGTKLTVL","% Inhibition, HEK Blue SEAP reporter assay",hu-IL-36β [1],86%
"anti-IL-36 multispecific antibody mAb2.10/mAb6_2.7 (bispecific antibody, human IgG1, lambda, N297G) heavy 1: not shown heavy 2: not shown light: ESVLTQPPSVSGAPGQRVTISCTGSSSNIGAHYDVHWYQQLPGTAPKLLIYGNDNRPSGVPDRFSGSKSGTSASLAITGLQAEDEADYYCQSYDYSLSGYVFGGGTKLTVLGQPKAAPSVTLFPPSSEELQANKATLVCLISDFYPGAVTVAWKADSSPVKAGVETTTPSKQSNNKYAASSYLSLTPEQWKSHKSYSCQVTHEGSTVEKTVAPTECS",percent of IL-8 production in HaCat cells inhibited at 8 nM antibody,hu-IL-36α [7],100%
same,percent of IL-8 production in primary human adult keratinocytes inhibited at 8 nM antibody,hu-IL-36α [7],100%
same,percent of IL-8 production in HaCat cells inhibited at 8 nM antibody,hu-IL-36β [8],100%
same,percent of IL-8 production in primary human adult keratinocytes inhibited at 8 nM antibody,hu-IL-36β [8],100%
same,percent of IL-8 production in HaCat cells inhibited at 8 nM antibody,hu-IL-36γ [9],100%
same,percent of IL-8 production in primary human adult keratinocytes inhibited at 8 nM antibody,hu-IL-36γ [9],100%
"mAb7.0 Fab (Fab, V domains shown) VH: QVQLVESGGGVVQPGRSLRLSCAASGFTFSSYGMHWVRQAPGKGLEWVAVISYGGSERYYADSVKGRFTISRDNSKNTLYLQMNSLRAEDTAVYYCAREPWYSSRGWTGYGFDVWGQGTLVTVSS VL: EIVLTQSPGTLSLSPGERATLSCRASQSVSSNYLAWYQQKPGQAPKLLIYSASSLQSGVPSRFSGSGSGTDFTLTISSLQPEDFATYYCQQTYSYPPTFGQGTKVEIK","% Inhibition, HEK Blue SEAP reporter assay",hu-IL-36β [1],84%
"mAb7.0 IgG (antibody, V domains shown) VH: QVQLVESGGGVVQPGRSLRLSCAASGFTFSSYGMHWVRQAPGKGLEWVAVISYGGSERYYADSVKGRFTISRDNSKNTLYLQMNSLRAEDTAVYYCAREPWYSSRGWTGYGFDVWGQGTLVTVSS VL: EIVLTQSPGTLSLSPGERATLSCRASQSVSSNYLAWYQQKPGQAPKLLIYSASSLQSGVPSRFSGSGSGTDFTLTISSLQPEDFATYYCQQTYSYPPTFGQGTKVEIK","IC50, HEK Blue SEAP reporter assay",hu-IL-36β [2],1.4 nM
"mAb6.0_2.0 IgG (antibody, V domains shown) VH: QLQLQESGPGLVKPSETLSLTCTVSGGSITSSNYYWGWIRQPPGKGLEWIGSIDYTGSTYYNPSLKSRVTISVDTSKNQFSLKLSSVTAADTAVYYCARGKYYETYLGFDVWGQGTLVTVSS VL: QSVLTQPPSVSGAPGQRVTISCTGSSSNIGAHYDVHWYQQLPGTAPKLLIYGNDNRPSGVPDRFSGSKSGTSASLAITGLQAEDEADYYCQSYDYSLSGYVFGGGTKLTVLG","fold lower potency than mAb6.0 IgG, HaCat IL-8 assay",hu-IL-36β [8],16 fold
